Assay results as given in the Human Domainome abundance scans (Beltran et al. 2025).

B1: RNA-binding E3 ubiquitin-protein ligase MEX3C, residues 325 to 391; numbered along this chain, Q5U5Q3 (parent)
chain: GQTTVQVRVPYRVVGLVVGPKGATIKRIQQQTHTYIVTPSRDKEPVFEVTGMPENVDRAREEIEMHI

Variants of: B1
Assay: abundance fitness (aPCA) (normalised: wild type 0, dead -1); higher = more abundant; growth selection in yeast, the domain comes from the species named
Details: Homo sapiens

Abundance fitness: each site, then its substitutions
V14: W -0.349; R -0.372; P -0.703; Q -0.881; E -0.51; I 0.114; D -0.529; S -0.603; M -0.185; Y -0.51; C -0.89; T -0.524; K -0.636; F -0.315; G -0.746
G22: Q -0.189; D -0.543; C -0.712; M -0.274; F -0.738; K -0.424; N -0.631; P -0.836; L -0.587; W -0.687; E -0.389; A -0.489; S -0.522; T -0.68; H -0.769; R -0.504
R8: V -0.66; W -0.382; S -0.377; Q -0.683; T -0.209; Y -0.175
V17: Y -0.505; H -0.149; F -0.711; Q -0.529; M -0.741; D -0.702; L -0.415; E -0.537; K -0.533; W -0.635; R -0.751; T -0.524; A -0.436; S -0.872; I 0.013
I28: L -0.559; P -0.376; C -0.874; R -0.419; V -0.496; F -0.467; M -0.639; T -0.288; Q -0.576; H -0.751; G -0.883; W -1.2; A -0.695; E -0.952
T24: W -0.553; P -1.02; N 0.171; E -0.304; D -0.67; A -0.53; G -0.371; H -0.28; R -0.366; S -0.731; I -0.792; Q -0.818; Y -0.589; K -0.346; M -0.786; C -0.574; V -0.517; L -0.875
G15: A -0.067; S -0.128; C -0.59; I -0.872; H -0.059; D 0.018; E -0.121; K -0.235; M -0.459; V -0.986; Q -0.181; Y -0.691; W -0.779; P -0.093; R -0.212; N -0.234
R12: Q 0.013; Y -0.064; K 0.063; S 0.175; M -0.401; G 0.143; P 0.054; I -0.373; N 0.141; F -0.11; V -0.652; L -0.588; H -0.189; E 0.136; T -0.201; D 0.159; A 0.001
A23: G -0.443; C -0.352; T -0.012; H -0.258; N -0.568; L -0.293; Q 0.003; V -0.477; R 0.063; S -0.08; F -0.868; W -0.553; M -0.027; E -0.082; I -0.332; D -0.55
P10: A -0.708; F -1.1; V -0.707; H -0.825; K -0.563; W -0.841; L -0.693; T -0.611; S -0.793; C -0.655; G -0.767; M -0.885; Q -0.754; D -0.372; I -0.634
P20: E -0.139; M -0.763; G -0.717; Q -0.15; L -0.59; A -0.381; T -0.472; C -0.444; V -0.449; Y -0.266; W -0.625; I 0.051; R -0.039; K -0.026; H -0.123; S -0.408
K26: R -0.126; F -0.786; L -0.655; Y -0.944; S -0.483; N -0.491; V -0.747; H -0.66; G -0.769; P -0.56; D -0.417; A -0.119; T -0.61; C -0.911; W -0.722; Q -0.343; M -0.212
Y11: H 0.17; E 0.402; K 0.369; N -0.014; R 0.262; W 0.136; Q 0.233; A 0.171; F -0.514; P 0.128; L -0.029; S 0.236; M 0.154; G -0.013
V9: R -0.609; D -0.834; I -0.54; A -0.657; Q -0.993; W -0.767; N -0.954; T -0.84; K -0.776; L -0.873; G -0.551; P -0.825; F -0.933; M -0.641; H -0.928; E -0.733
V13: D 0.057; W -0.098; M 0.075; G -0.153; K 0.216; A -0.029; T -0.006; I -0.366; R -0.25; F 0.022; E -0.334; S 0.127; N -0.207; Y -0.073; C -0.024; H -0.041; P -0.809; L 0.114; Q 0.169
I25: C -0.58; L -0.165; G -0.68; M -0.571; A -0.811; H -0.62; Y -0.502; K -0.754; T -0.75; F -0.905; E -0.786; P -0.64; R -0.39
G19: Q -0.623; L -0.951; N -0.64; R -0.739; H -0.694; A -0.86; I -1.08; V -0.795; T -0.822; F -0.863; D -0.716; Y -0.159; E -0.897; P -0.824; C -0.844; K -0.785; W -0.848; M -1.03
V18: M -0.119; D -0.367; Q -0.63; Y -0.256; W -0.639; N -0.305; F -0.374; A -0.433; G -0.794; H -0.456; T -0.26; K -0.541; E -0.284; S -0.523; R -0.508; C -0.258; P -0.771; I 0.019
L16: Y -0.228; V -0.353; A -0.052; I -0.174; P -0.615; N -0.312; G -0.506; T -0.095; E -0.133; M 0.316; C -0.213; Q 0.034; H -0.047; K -0.192; W -0.122; R 0.075; F -0.139; D -0.058
Q29: D -0.34; A 0.106; E -0.241; F -0.882; C -0.392
R27: T -0.38; D -0.656; L -0.665; E -0.512; W -0.241; G -0.591; F -0.755; S -0.465; M -0.346; K 0.111; V -0.577; I -0.901; A -0.37; N -0.59; Q -0.399; C -0.832; P -0.834
K21: C -0.247; D -0.19; S -0.233; I -0.53; H -0.273; G -0.04; W -0.458; N -0.113; T -0.596; L -0.183; E -0.099; A -0.186; M -0.031; R -0.196; P -0.884
